# According to patent US20240026407A1, “MODIFICATION OF SAPONINS” (GLAXOSMITHKLINE BIOLOGICALS SA, priority 2020, published 2024):
# B1: 891 (protein, listed as Pseudarthrobacter chlorophenolicus)
# chain: MNPTLPAAATVPAVGSPDAEARIRDLAESLTLEQQVQLLTGADVWSTHALPAIGLSRVVMSDGPAGVRGEDFDERHDSVSLPSSSALSATWSVDLARRYGQVLGQEARRKGVHAVLGPTINLHRSPLGGRHFECMSEDPRLTATIAAGYVAGVQSMGVGATPKHYLANEAETDRFTSDSVVDERPLRELYLAAFEDAVTEARAWLVMSSYNSINGTTASENDLLETPLSTEWGFDGVVVSDWTGVRSVDAANAHQDLEMPGPVGHWGPKLLAAVGDGRVSRTAILDKVVRILRLAARVGSLDGVSPAVTELPAPLNAPAVAREVAVRGAVLVRNKDGLLPLDPAALGSVAVSGHNAEEARTQGGGSATVMPKQNISPLEGLREALPANVAISYHRGAKVAEGLQAFPRTSLHNPVSNVPGLRVTFLAADGTELSGEDRLASHLIWFGIGIPEGAAAIRMETDWTAPSAGTHHLGLGTVGRIRLSLRGQEVFNGDIEDETEVLGAALFDPPKTVHAIETEAGERVRIEALFELPADQAIPFTAILLGEETVVADPQAEIDAAVEAARTADVAVVVVGTSAAIESEGFDRKDLDLPGHQNRLVEAVAAANPRTVVVVNSGSPVLMPWLDKVGAVLLGWFGGQEFGRAIADILLGAEEPGGRLPTTWPAALEDVPVLDTTPMDGKVVYSEGIHVGYRAWLKQQAAGGAAPALPFGYGLGYTTFELCTPHASQAVPAGKDVVVHVPVRNTGTRAGREVVQVYLERPESAVERPVRWLAGYAGTHLAAGGTSSVEVRIPGRAFAHYDGGWQVEPGTFRILVGRHSADGFQALDIDVR
# B2: 816 (protein)
# chain: MTASTDHLRPLLEKLSLEQKAALVQGADFWTTVPLPEIGLRALTLSDGPAGVRGPRWDEREPSLNLPSGSALAASWDVDLAYRYGAAAASEARRKGVDVVLGPTINLHRSPLGGRHFECLSEDPELTAELGAAYVRGMQENGVAATPKHYVANDSETDRFTVDVEVDERTLREVYLAPFERAVEAGAWSVMSAYNSVDGVTMTENDLLENPLNSEWGFDGVVVSDWTAVRSLDAVAAAQDLAMPGPAPAWADLVDAVHDGRVDEADIDRKVLRILLLAERVGALEGADAVAPAPLDGPAFAKEAAVEGTVLLQNSGVLPLDLAGLTKVAIIGHNAKDARTQGGGSATVLPEKVVSPLDAIRAALPAAEVSYEIGAVVQEGVAEIPLASIENPVTGGPGVRVSFHGADGTELFAEDRRATALVWFGGDAPIGASRTIVLETRYTPAESGEIQLGFAGANPGRIFVDGELVLDDVPVIEGTDLGAAFLNPPSITSAVTVEAGRAVDLRAEFTRESRGALDGALSVTLGIAPERTDPDELIARAAAAASAAEVAVVVVGTNSKVESEGYDRVDLDLPGRQDDLVRAVAATGTPTVVVVNAGSPVVLPWAGEVAAIVQGYFGGQEFGHAIAEVLTGAAEPGGRLPTTWPAALADVPVADVTPVDGRLVYAEGLHIGYRAWLKDDVQPAFPFGHGLGYTTWSWGTAQRHDDTVEVTLANTGEREGKQVVQVYAERADSTVDRPARWLVGFAVVHAEPGRTVTAVVPVPARRLAHWAGEWVVEPGAYTLRVGSSVADLPLSVEWVQA
# modifications: Microbacterium hydrocarbonoxydans
# B3: 857 (protein, listed as Streptomyces venezuelae)
# chain: MTETGAHTAADAARESVVEAALAKLDLDSKTRLLAGQDMWSLPALPEIGLTSLVMSDGPIGVRGVRWTADDPSVALPSPTALAAAWDPALARRAGRLLAQEARRKGVHVLLAPTVNLHRTPLGGRHFEAYSEDPLLTGAIGTGYVQGVQDGGVGTTVKHFVANDAETDRFTVDNRIAPRPLRELYLAPFEAIVKNAHPWGIMTAYNQVNGVTMTEHRHLVNEVLRGEWGFDGFNVSDWMAARSTTGDIEGGLDVAMPGPQTVYGEALAAAVRAGEVEESTVDAAVRNVLRLAARVGALEGAPPVVTDPPAAIDGDALAREIAHRGFVLVRNENGALPLKNGTVALSGAAARDARVLGGGSAQVFPEHIVSPLDGLTAALPEGALTYTIGADPSDELTPADQGFTLRAVCRDASGTVLGEGTLPNGQVQWIGDDLPAGVTHEALASIEVVGRFTPRETGEHAFGTRGLGAFRLSVDGETLFDGVQALGPETDPFEAFFGSPVERAKVVLTAGETVDVSLLHTLDKEFAAPLPAVMFSFVHLGPRRDPDELIAEAVEAARAADTAVVVVATTERVESEGFDRKDLALPGRQDDLVRAVAAANPNTVVVVNAGSPVELPWREEVAAVLLSWFPGQEGGAALADVLTGAEEPGGRLPTTWPAALADAPVTEVTPTGGELDYAEGVFIGYRAWDKAGAVPAYAFGHGLGYTTWTYESLTARPGTATVRLTNTGDRPGREVVQVYLAPVDDGVERPARWLAGFGCVEAGPGETVETEIALPRRAFEIWDEEKNDWSFVGGAYEVLAARSLTDARLSATLEV
# B4: 853 (protein, listed as Clostridium oryzae)
# chain: MKRDIKEIVSKMTLEEKAGLCSGLDFWHTKGVERLGVPSIMVTDGPHGLRKQDTSADHLGINDSVPATCFPSGATLACSWDRSLLQKVGTALGEECQAEGVSVILGPAANIKRSPLCGRNFEYFSEDPYLSTEMAANHIKGVQSQGVGTSLKHFAVNNQEHRRLSVDAEVDERTLREIYLASFEGAVKQSQPWTVMCSYNKVNGTYASENEYLLTSILKEEWGHEGFVMSDWGAVDRRENALKAGLELEMPSSNGIGDNRIVQAVKNGELKEEVLDKAVERLLNIIFKAVDNKKEGAVYDREQHHSLARKIAGECMVLLKNEDNILPLKKEGKIAVIGGFVDKYRYQGGGSSHIKPNKLDNAAEELKKAAKGENIVFAKGFSLDNDEVDSKLMEEAKNAAASAETAVIFAGLPDRYESEGYDRSHMRIPDNQIALINAIAEVQKNIVVVLSNGSPIEMPWIGNVKGILEAYLGGEAGAGAIADILFGEVNPSGKLAESFPKKLSDNPSYLNFPGEGDTVEYKEGLFVGYRYYDKKEVETLFPFGYGLSYTTFEYKNITVDKKNITDEEKLVVKVTVKNTGKLTGKEIVQLYVRDVESSVIRPVKELKGFEKVELAAGEEKTVEFVLDKRTFAYYNVDIKDWYVESGDFEILIGSSSKDIYLKDVVNVEGTTAVKKIYTRNSTVGDVMANPQARKLTEELLSSTFGQGTDDSENLGTDMTAMMKDMTLRSILHFGGDKSKEKELDKILEMLNK
# B5: 827 (protein, listed as Bionectria ochroleuca)
# chain: MAPTDVNAVLSKLTLEEKISILAGADFWQTVPIPEKGVPALKTSDGPNGARGETFSGGVTAACFPAACSVASTFDVDIARRIGVALGEETLTKGARCLLGPTICGHRHPLGGRNFESFSEDPFLAGTLASQSVQGIQSTGVAATMKHYAVNEQETERLSVDEIVDERTMREIYLRPFERVVKEAKPAAVMTGYNQVNGSHCDSHEFLLKQVLRGEWGWDGLVMSDWGGVNSVAESLNAGLDLEMPGPTRWRKVDEVVAAVKAGKVSEETINDRAIHVLRFLERQNCFKDPTIPPEQAVNKPEHQALIREAGSKGIVLLKNNDNVLPLTKEKARGKKIALLGLAKESLAHGGGSASLNAHYKITPWDALQEAYKGENVEFTYAKGAHTLRQLPVITKNVVDVDGKPGFTWRSYHVGESQPYNTVGGHAKSEISLLDGLNMVNTSIELEGTFTASESATYYFTLSGLGPSSVAINGTVVFEQEDNCSDPMGFLLGGVASPLVKYEFESGKQYKILLKSTPPAPVEGVDLGILEGKVGVRLGNMSASEHDKDILTEAIDLAKAADYAIVFTGHDPSWETEGQDQHSFNLPKDGSQDRLVSGVAAVNQNTIVVNSTGVAVAMPWLDEIKSLVHTWFPGQEAGNSIADVLTGERNPEGHLTCTFPKRLEDCPAYGNFPGEYNGRQLTVKYAEGVFVGYRHFDRLPAEKVNFPFGFGLSYTTFGFSDFDVKPTAAGDEWTASVKVTNTGSVKGAIAVQLYVGNSKTSPENPVKSLVSFKKVTLAAGGSAVVELPAQGRDIAFWSQQEHKWVLEAGEYNFSVGKSAGDLVATATVQVGGKTYAP
# B6: 881 (protein, listed as Treponema azotonutricium)
# chain: MTSKEIIPQMTLEEKAALCSGRDFWSLKGIERFGLEAIMVTDGPHGLRKQGGDGDHLGLNQSVPATCFPAACATACSFDRSLLEEIGAAMGEECRKEKVAVLLGPAANIKRSPLCGRNFEYISEDPFLTGEIAAALIKGVQKLGVGTSLKHYAVNNQEKRRMTINAVVDERAFREIYLAGFEKAVREAKPWTLMCSYNKINGTYASENKKLLTDILRDEWAYQGLVMTDWGASNNRLEGIKAGLDLQMPGPDADNDKRIIEAVKSGALSIEDLDKVVARVVDLIIKAGEGDSIGFACDMEAHHLLARRAAAESAVLLKNDENILPLVPGKTLAVIGAFAISPRYQGAGSSKINPSHLDKAFDAIMRTGIKAEYAPGYSLEAGSGVNEKLIAEAAKLAGEKDSAVVFAGLPDEYESEGFDRASMDMSESHNKLIEAVAKANPNTVVVLQLGSPVALPWADKVKGILLLYLSGQAGGGAAADLLTGNACPGGKLAETWPLALEDNPSYGNFPGSTKTVEYRESIFAGYRWYDALEKEVRYPFGFGLSYTSFEYSDLKLGTSAEAKDNFKKGDALKVSFTVKNTGSREGSETAQLYIAPDASVLFRAKKELKGFEKLHLKPGESKTVTLILDERSFAYYNVQAKDWSLEGGLYRILIGASSRDIRLEGKLELTGDKRETAFAFLKGGRPVFDDASFKAIYGAELPPKERLPGEPFTVNTSVEEIKDTPIGKALFGMAVQGLEQAFGKEKSDLKVMMESMLMDMPLRGLGMMSGGRLTPPVIEALVEALNGKPNPIASGLLGMK
# Assay: Experiment 5-2: screening of additional glucosidases for deglycosylation with QS-18 in crude bark extract (80%) at pH 6 and 35 deg C
# Assay type: biochemical, Quillaja saponaria
# Conditions: CBE 80%, pH 6, 35 deg C, 18 hours; UV HPLC
# Description: A plate was lysed at pH 6 as described in Experiment 4-2. 40 uL of clarified lysate was transferred to a reaction plate
# The pH of CBE was adjusted to pH 6 by dropwise addition of 2M NaOH with stirring. 160 uL of pH 6 CBE was added to each well of the reaction plate. The reaction plate was sealed and incubated at 35 deg C. with shaking for 18 hours.
# The reaction plate was quenched by adding 200 uL of MeCN (2% acetic acid (AcOH), 1 mg/mL hexanophenone) to each well of the plates. The quenched reaction plate was re-sealed and incubated at 20 deg C. with shaking for 10 min. The reaction plate was then centrifuged (10 min, 4 degC).
# 200 uL was transferred from each well of the quenched plate to the corresponding wells of a fresh 96 well plate and sealed. The plate was analysed by UV HPLC with the method of Experiment 4-4.
row,Molecule,Experiment 5-2 % conv
1,B1,<0.5%
2,B2,<0.5%
3,B3,<0.5%
4,B4,<0.5%
5,B5,<0.5%
6,B6,<0.5%

# Assay: Experiment 5-1: screening of additional glucosidases for deglycosylation with purified QS-18 (0.04 mg/ml) at pH 7.5 and 30 deg C
# Assay type: biochemical, Quillaja saponaria
# Conditions: pH 7.5, 30 degrees C, 18 hours, LCMS/MS
# Description: The 94 additional genes, together with positive control (DNA encoding SEQ ID No. 262) and negative control, were transformed, expressed, lysed and reacted in the same manner as described above for Experiment 4-1, except the reaction was incubated at 30 degrees C. for 18 hours.
# Samples were analysed by LCMS/MS according to the procedure in Experiment 4-1.
row,Molecule,Experiment 5-1 % conv
1,B1,74.7%
2,B2,73.5%
3,B3,69.0%
4,B4,67.7%
5,B5,69.2%
6,B6,77.5%

# Assay: Experiment 5-3: screening of additional glucosidases for deglycosylation with QS-18 in treated bark extract (80%) at pH 6 and 35 deg C
# Assay type: biochemical, Quillaja saponaria
# Conditions: TBE 80% (QS-21 approx. 4 g/L), pH 6, 35 deg C; UV HPLC
# Description: Experiment 5-1 was repeated, replacing CBE with Treated Bark Extract (TBE) at pH 6. TBE was prepared from CBE by PVPP treatment and concentration, to provide TBE with a QS-21 concentration of approximately 4 g/L. TBE was adjusted to pH 6 by dropwise addition of 2M NaOH with stirring.
row,Molecule,Experiment 5-3 % conv
1,B1,<0.5%
2,B2,<0.5%
3,B3,<0.5%
4,B4,2.5%
5,B5,<0.5%
6,B6,<0.5%
